Laboratory results from the supplement of paper PMC9112550, “Optimization of the antimicrobial peptide Bac7 by deep mutational scanning” (BMC Biology, 2022).

Tested on: Escherichia coli TOP10
Assay: shrunken log2 fold change of peptide-encoding DNA abundance (4.5 h post-induction vs induction); higher = less antimicrobial activity (less host growth inhibition)
Conditions: time post-induction: 4.5 h; library: site-saturation at positions 5, 18, 19, 20
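Also: peptides expressed intracellularly from a pBAD plasmid library in pooled LB shake-flask culture, induced with 0.3% L-arabinose, DNA abundance read by NGS, three biological replicates, DESeq2 with apeglm shrinkage.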

RRIRHRPPRLPRPRPRPWWKPRP
shrunken log2 fold change: -0.0848

RRIRHRPPRLPRPRPRPWYRPRP
shrunken log2 fold change: -0.0954

RRIRHRPPRLPRPRPRPYAAPRP
shrunken log2 fold change: -0.519

RRIRHRPPRLPRPRPRPYCSPRP
shrunken log2 fold change: -0.337

RRIRHRPPRLPRPRPRPYFIPRP
shrunken log2 fold change: -1.14

RRIRHRPPRLPRPRPRPYGNPRP
shrunken log2 fold change: -0.298

RRIRHRPPRLPRPRPRPYKFPRP
shrunken log2 fold change: -0.0481

RRIRHRPPRLPRPRPRPYKIPRP
shrunken log2 fold change: -0.373

RRIRHRPPRLPRPRPRPYKRPRP
shrunken log2 fold change: -0.051

RRIRHRPPRLPRPRPRPYKWPRP
shrunken log2 fold change: -0.0842

RRIRHRPPRLPRPRPRPYMCPRP
shrunken log2 fold change: -0.536

RRIRHRPPRLPRPRPRPYMDPRP
shrunken log2 fold change: -0.356

RRIRHRPPRLPRPRPRPYNCPRP
shrunken log2 fold change: -0.00726

RRIRHRPPRLPRPRPRPYPMPRP
shrunken log2 fold change: -0.2

RRIRHRPPRLPRPRPRPYQHPRP
shrunken log2 fold change: -0.0148

RRIRHRPPRLPRPRPRPYQRPRP
shrunken log2 fold change: 0.0916

RRIRHRPPRLPRPRPRPYVAPRP
shrunken log2 fold change: -0.912

RRIRHRPPRLPRPRPRPYWDPRP
shrunken log2 fold change: -0.849

RRIRHRPPRLPRPRPRPYYMPRP
shrunken log2 fold change: -0.636

RRIRHRPPRLPRPRPRPYYYPRP
shrunken log2 fold change: -1.31

RRIRIRPPRLPRPRPRPAAEPRP
shrunken log2 fold change: 0.197

RRIRIRPPRLPRPRPRPAAIPRP
shrunken log2 fold change: -0.199

RRIRIRPPRLPRPRPRPAAPPRP
shrunken log2 fold change: 0.47

RRIRIRPPRLPRPRPRPACKPRP
shrunken log2 fold change: -0.659

RRIRIRPPRLPRPRPRPACSPRP
shrunken log2 fold change: -0.129

RRIRIRPPRLPRPRPRPADVPRP
shrunken log2 fold change: -0.134

RRIRIRPPRLPRPRPRPAECPRP
shrunken log2 fold change: -0.311

RRIRIRPPRLPRPRPRPAESPRP
shrunken log2 fold change: 0.0486

RRIRIRPPRLPRPRPRPAFEPRP
shrunken log2 fold change: -0.117

RRIRIRPPRLPRPRPRPAFFPRP
shrunken log2 fold change: 0.0559

RRIRIRPPRLPRPRPRPAFHPRP
shrunken log2 fold change: -0.2

RRIRIRPPRLPRPRPRPAGKPRP
shrunken log2 fold change: 0.0304

RRIRIRPPRLPRPRPRPAGMPRP
shrunken log2 fold change: -0.0321

RRIRIRPPRLPRPRPRPAHGPRP
shrunken log2 fold change: 0.188

RRIRIRPPRLPRPRPRPAHLPRP
shrunken log2 fold change: 0.117

RRIRIRPPRLPRPRPRPAHTPRP
shrunken log2 fold change: -0.588

RRIRIRPPRLPRPRPRPAITPRP
shrunken log2 fold change: -0.706

RRIRIRPPRLPRPRPRPAKCPRP
shrunken log2 fold change: -0.126

RRIRIRPPRLPRPRPRPAKDPRP
shrunken log2 fold change: -0.268

RRIRIRPPRLPRPRPRPAKEPRP
shrunken log2 fold change: -0.374

RRIRIRPPRLPRPRPRPAKHPRP
shrunken log2 fold change: -0.476

RRIRIRPPRLPRPRPRPAKRPRP
shrunken log2 fold change: 0.0281

RRIRIRPPRLPRPRPRPALDPRP
shrunken log2 fold change: 1.45

RRIRIRPPRLPRPRPRPAMFPRP
shrunken log2 fold change: -0.45

RRIRIRPPRLPRPRPRPAMHPRP
shrunken log2 fold change: -0.221

RRIRIRPPRLPRPRPRPANGPRP
shrunken log2 fold change: 0.0224

RRIRIRPPRLPRPRPRPANWPRP
shrunken log2 fold change: 0.236

RRIRIRPPRLPRPRPRPANYPRP
shrunken log2 fold change: -0.33

RRIRIRPPRLPRPRPRPAQPPRP
shrunken log2 fold change: 0.213

RRIRIRPPRLPRPRPRPASDPRP
shrunken log2 fold change: -0.077

RRIRIRPPRLPRPRPRPASMPRP
shrunken log2 fold change: -0.281

RRIRIRPPRLPRPRPRPAVNPRP
shrunken log2 fold change: 0.131

RRIRIRPPRLPRPRPRPAVPPRP
shrunken log2 fold change: -0.181

RRIRIRPPRLPRPRPRPAWRPRP
shrunken log2 fold change: 0.263

RRIRIRPPRLPRPRPRPCAKPRP
shrunken log2 fold change: 0.0416

RRIRIRPPRLPRPRPRPCAWPRP
shrunken log2 fold change: -0.0154

RRIRIRPPRLPRPRPRPCEYPRP
shrunken log2 fold change: -0.115

RRIRIRPPRLPRPRPRPCFCPRP
shrunken log2 fold change: -0.422

RRIRIRPPRLPRPRPRPCFPPRP
shrunken log2 fold change: -0.569

RRIRIRPPRLPRPRPRPCFSPRP
shrunken log2 fold change: -0.198

RRIRIRPPRLPRPRPRPCGRPRP
shrunken log2 fold change: 0.0552

RRIRIRPPRLPRPRPRPCHQPRP
shrunken log2 fold change: -0.245

RRIRIRPPRLPRPRPRPCHRPRP
shrunken log2 fold change: -0.452

RRIRIRPPRLPRPRPRPCITPRP
shrunken log2 fold change: -0.0326

RRIRIRPPRLPRPRPRPCLHPRP
shrunken log2 fold change: -0.174

RRIRIRPPRLPRPRPRPCLTPRP
shrunken log2 fold change: 0.0747

RRIRIRPPRLPRPRPRPCMGPRP
shrunken log2 fold change: -1.07

RRIRIRPPRLPRPRPRPCMHPRP
shrunken log2 fold change: -0.171

RRIRIRPPRLPRPRPRPCNGPRP
shrunken log2 fold change: -0.0882

RRIRIRPPRLPRPRPRPCNVPRP
shrunken log2 fold change: -0.449

RRIRIRPPRLPRPRPRPCPIPRP
shrunken log2 fold change: 0.128

RRIRIRPPRLPRPRPRPCPLPRP
shrunken log2 fold change: -0.751

RRIRIRPPRLPRPRPRPCPWPRP
shrunken log2 fold change: -0.161

RRIRIRPPRLPRPRPRPCQTPRP
shrunken log2 fold change: -0.02

RRIRIRPPRLPRPRPRPCRWPRP
shrunken log2 fold change: 0.0527
